How the values were obtained:
[1] = molecular target: C-terminal AZ peptide AZ(100-228) (human) (UniProt P54368); assay: AUC; sedimentation velocity; AZ or AZ peptide at a fixed concentration, three concentrations of CCND1; 30 mM Tris-HCl pH 7.4, 50 mM NaCl; global fit (SEDPHAT) to A+B↔AB hetero-association
[2] = molecular target: human cyclin D1 (CCND1) (human) (UniProt P24385); assay: AUC; sedimentation velocity of CCND1 alone at 0.05, 0.1 and 0.3 mg/ml, 30 mM Tris-HCl pH 7.4, 20°C; global fit (SEDPHAT) to monomer-dimer equilibrium; dimer to monomers
[3] = molecular target: ornithine decarboxylase (Homo sapiens) (UniProt P11926); assay: analytical ultracentrifugation; settings: cited from earlier work
[4] = molecular target: antizyme inhibitor (Homo sapiens) (UniProt O14977); assay: analytical ultracentrifugation; settings: cited from earlier work
Sequence of antizyme inhibitor (Homo sapiens) (O14977 whole entry): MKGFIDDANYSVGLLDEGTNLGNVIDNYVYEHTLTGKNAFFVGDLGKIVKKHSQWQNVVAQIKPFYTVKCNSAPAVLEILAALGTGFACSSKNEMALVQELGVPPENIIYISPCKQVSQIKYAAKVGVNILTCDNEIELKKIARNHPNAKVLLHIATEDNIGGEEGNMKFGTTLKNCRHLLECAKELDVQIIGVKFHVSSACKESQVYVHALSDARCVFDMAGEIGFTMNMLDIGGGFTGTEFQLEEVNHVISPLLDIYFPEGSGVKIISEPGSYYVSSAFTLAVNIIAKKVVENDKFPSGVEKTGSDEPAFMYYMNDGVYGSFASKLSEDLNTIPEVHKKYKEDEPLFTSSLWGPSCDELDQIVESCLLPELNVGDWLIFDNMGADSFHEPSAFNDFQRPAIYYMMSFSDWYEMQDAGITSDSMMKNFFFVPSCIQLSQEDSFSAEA

Sequence of antizyme (P54368 whole entry): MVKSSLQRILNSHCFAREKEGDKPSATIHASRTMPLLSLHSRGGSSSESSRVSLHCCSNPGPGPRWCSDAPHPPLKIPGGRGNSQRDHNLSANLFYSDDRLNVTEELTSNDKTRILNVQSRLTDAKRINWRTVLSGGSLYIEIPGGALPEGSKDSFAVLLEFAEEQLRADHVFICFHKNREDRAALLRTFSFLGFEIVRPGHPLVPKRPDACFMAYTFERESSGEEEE
Sequence of human cyclin D1 (CCND1) (P24385 whole entry): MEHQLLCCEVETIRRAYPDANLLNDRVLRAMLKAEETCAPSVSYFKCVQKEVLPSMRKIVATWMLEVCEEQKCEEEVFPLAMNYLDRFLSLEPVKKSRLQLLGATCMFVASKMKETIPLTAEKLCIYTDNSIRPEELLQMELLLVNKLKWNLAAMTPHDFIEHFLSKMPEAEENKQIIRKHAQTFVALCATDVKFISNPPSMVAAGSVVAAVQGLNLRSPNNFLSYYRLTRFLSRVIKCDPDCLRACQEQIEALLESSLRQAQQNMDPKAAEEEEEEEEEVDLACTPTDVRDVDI
Sequence of ornithine decarboxylase (Homo sapiens) (P11926 whole entry): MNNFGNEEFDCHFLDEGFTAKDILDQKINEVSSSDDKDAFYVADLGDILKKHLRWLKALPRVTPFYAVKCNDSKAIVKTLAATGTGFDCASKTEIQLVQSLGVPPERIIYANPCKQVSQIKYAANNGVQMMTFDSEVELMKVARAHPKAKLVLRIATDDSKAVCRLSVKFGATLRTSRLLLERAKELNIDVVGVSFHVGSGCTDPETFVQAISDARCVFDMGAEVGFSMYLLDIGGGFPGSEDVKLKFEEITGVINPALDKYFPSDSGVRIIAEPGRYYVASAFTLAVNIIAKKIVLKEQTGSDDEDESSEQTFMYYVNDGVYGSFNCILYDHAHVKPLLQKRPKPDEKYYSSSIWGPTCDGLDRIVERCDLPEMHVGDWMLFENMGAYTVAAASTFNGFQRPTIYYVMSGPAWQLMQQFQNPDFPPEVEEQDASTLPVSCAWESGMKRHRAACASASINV
Sequence of C-terminal AZ peptide AZ(100-228) (human) (P54368 100-228): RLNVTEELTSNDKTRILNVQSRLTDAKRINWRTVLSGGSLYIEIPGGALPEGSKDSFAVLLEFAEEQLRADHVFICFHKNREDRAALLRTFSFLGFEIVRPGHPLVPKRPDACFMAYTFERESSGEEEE

human cyclin D1 (CCND1) (from UniProt P24385 1-295) (natural protein)
Kd [1]: 14.1 µM

human cyclin D1 (CCND1) (from UniProt P24385 1-295) (natural protein; other documents disagree on this pair)
Kd [2]: 3.84 µM
stoichiometry N [2]: 2

antizyme (from UniProt P54368)
Kd [3]: 0.21 µM
Kd [4]: 0.02 µM
